Experiments:
MCP-1 and FKN [1] = test: IV sPDNF into TLR-deficient MyD88-/- mice, MCP-1 and FKN; type: in vivo; settings: IV 100 μg per mouse, 3 hr post-injection
Experimental: Wild type C57BL/6 mice were used in the results depicted in FIGS. 11A-11D. FIG. 11A is a graph depicting that a single dose of intravenous (IV) sPDNF increased MCP-1 and FKN transcripts in the heart in a pulse-like response. Groups of mice (2 per group) were injected with vehicle (Veh) or sPDNF (150 μg/mouse) and sacrificed at 3, 6, 9 and 12 hr post-injection, and cardiac MCP-1 and FKN transcripts were quantified by qPCR. Points represent fold change of the mean±SD relative to Veh injected mice; *P<0.05 and **P<0.01. Experiment repeated three times with similar results; liver also responded with similar pulselike kinetics. FIG. 11B is a graph depicting that organ distribution of MCP-1 increased following a single IV dose of sPDNF. Experimental design analogous to that summarized above. FIG. 11C is a graph showing that a single IV dose of sPDNF augments MCP-1 and FKN transcripts dose-dependently in the heart. […] For the results depicted in FIGS. 11C and 11D, groups of three mice were injected with various doses of sPDNF, and heart and liver harvested 3 hr post-injection to quantify MCP-1 and FKN by qPCR. […]
To ensure that the response observed in wild type mice was not due to TLR activation, MCP-1 and FKN response to IV sPDNF was assessed in TLR-deficient MyD88^−/− mice (23).

MCP-1 and FKN [2] = test: Single dose IV sPDNF into naive wild type C57BL/6 mice, MCP-1 and FKN by real time PCR; type: in vivo
Experimental: Wild type C57BL/6 mice were used in the results depicted in FIGS. 11A-11D. FIG. 11A is a graph depicting that a single dose of intravenous (IV) sPDNF increased MCP-1 and FKN transcripts in the heart in a pulse-like response. Groups of mice (2 per group) were injected with vehicle (Veh) or sPDNF (150 μg/mouse) and sacrificed at 3, 6, 9 and 12 hr post-injection, and cardiac MCP-1 and FKN transcripts were quantified by qPCR. Points represent fold change of the mean±SD relative to Veh injected mice; *P<0.05 and **P<0.01. Experiment repeated three times with similar results; liver also responded with similar pulselike kinetics. FIG. 11B is a graph depicting that organ distribution of MCP-1 increased following a single IV dose of sPDNF. Experimental design analogous to that summarized above. FIG. 11C is a graph showing that a single IV dose of sPDNF augments MCP-1 and FKN transcripts dose-dependently in the heart. FIG. 11D is a graph showing that a single IV dose of sPDNF augments MCP-1 and FKN transcripts dose-dependently in the liver. For the results depicted in FIGS. 11C and 11D, groups of three mice were injected with various doses of sPDNF, and heart and liver harvested 3 hr post-injection to quantify MCP-1 and FKN by qPCR. The results are plotted as a composite of three distinct experiments. […] For the results depicted in FIGS. 11E-11H, TLR-deficient MyD88^−/− mice (two per group) were injected IV with vehicle (PBS) or sPDNF (100 μg per mouse), sacrificed 3 hr post-injection. FIG. 11E is a graph showing MCP-1 expression in the heart of MyD88^−/− mice injected with sPDNF. FIG. 11F is a graph showing FKN expression in the heart of MyD88^−/− mice injected with sPDNF. FIG. 11G is a graph showing MCP-1 expression in the liver of MyD88^−/− mice injected with sPDNF. FIG. 11H is a graph showing FKN expression in the liver of MyD88^−/− mice injected with sPDNF.
Groups of naive wild type C57BL/6 mice were injected with vehicle (PBS) or a single dose of IV sPDNF. Mice were sacrificed at various timepoints post-injection, and heart MCP-1 and FKN expression measured by real time PCR. […] The agonist effect of IV sPDNF was screened in various organs using optimum time response (3 hr post-injection) using the same dose as in FIG. 11A. […] Organ distribution of MCP-1 expression in response to IV sPDNF was similar to that of FKN. Without being bound to a particular theory, the selective increase of MCP-1 and FKN in various organs may reflect the uneven expression of PDNF receptors TrkA and TrkC in neural and non-neural tissues (22, 50).
RNA was isolated from Trizol lysates of cell monolayers or liquid nitrogen snap frozen tissue samples dissociated by a Tissue-Tearor mechanical homogenizer (Biospec Products, Inc.). cDNA was synthesized using the Quantitect Reverse Transcription kit (Qiagen) according to manufacturer's instructions. Chemokine and chemokine receptor transcripts were amplified using specific primers and normalized to HPRT using SYBR Green (Qiagen), and, if needed, expressed relative to control-unstimulated cells. The following primers were used: […]
sPDNF was diluted in sterile endotoxin-free PBS (200 μl) and injected via the tail vein into 6-8 week old female C57BL/6 mice. Mice receiving single IV injections of 150 μg sPDNF per mouse were sacrificed at 3, 6, 9, and 12 hr post-injection, or various doses of sPDNF (100 ng-150 μg) and sacrificed 3 hr post-injection. Mice receiving multiple injections of sPDNF or PBS vehicle control (0, 3, and 24 hr, 100 μg per injection) were sacrificed 24 hr after the last injection (i.e., 48 hr after the first injection). Mice were perfused with PBS and organs harvested as described above.

[3] = IV, naive mice; cited from earlier work
[4] = test system: heart of mice with chronic Chagas cardiomyopathy (CCC); test: Chronic Chagas cardiomyopathy (CCC) mice, heart histology (H&E, Masson-Trichrome); type: in vivo; settings: for cardiac fibrosis: IV, Masson-Trichrome
Experimental: FIG. 3A depicts in vivo experimental design, groups, treatment and timeline for the infective and anti-inflammatory effects of sPDNF. C57BL/6 mice (7 per group) were injected intraperitoneally with T cruzi Colombian strain (8×10^2 per mouse) and, four months later, intravenously with PBS (vehicle) or sPDNF (1 mg/kg body weight) at 0, 3, and 24 hours, weekly for 3 weeks. Mice were sacrificed 50 days after the first set of IV sPDNF treatment. FIG. 3B are images of heart (ventricle) paraffin-embedded, sectioned, and stained with H&E. Arrows indicate foci of inflammatory infiltrates, which were abundant in sham-treated (IV PBS) CCC mice and rare in IV sPDNF-treated CCC mice. Similar histology was found in other tissue sections and in a distinct set of sPDNF-treated and PBS-sham mice.
Same mice and experimental protocol as described in FIG. 3A were used except that paraffin-embedded heart sections were stained with Masson-Trichrome to visualize collagen in fibrotic areas (blue) and viable muscle fibers (red). FIGS. 4A and 4B display sections of atria of mice with CCC administered IV PBS or IV sPDNF, respectively. FIG. 4C is a graph showing the amount of cardiac fibrosis, as determined using ImageJ software (NIH) in four distinct sections of atria and ventricles. Relative cardiac fibrosis is defined as the ratio of blue pixels to total pixels (blue+red) normalized to corresponding areas of the heart of uninfected mice set at 1.0 (dotted line); **, P<0.01, ns, not significant relative uninfected hearts.

[5] = single IV dose 150 μg/mouse, pulse-like kinetics
[6] = various single IV doses, 3 hr post-injection

B1: sPDNF: N-terminal short-form of T cruzi PDNF that contains Trk-binding sites, recombinant; amino acids 1-588 of SEQ ID NO: 2; JR-100 is the commercial name (protein, listed as Trypanosoma cruzi)
chain: MGKTVVVASRMFWLMFFVPLLLAICPSEPAYALAPGSSRVELFKRKNSTVPFEDKAGKVTERVVHSFRLPALVNVDGVMVAIADARYDTSNDNSLIDTVAKYSVDDGETWETQIAIKNSRVSSVSRVVDPTVIVKGNKLYVLVGSYYSSRSYWSSHGDARDWDILLAVGEVTKSTAGGKITASIKWGSPVSLKKFFPAEMEGMHTNQFLGGAGVAIVASNGNLVYPVQVTNKKKQVFSKIFYSEDDGKTWKFGKGRSDFGCSEPVALEWEGKLIINTRVDWKRRLVYESSDMEKPWVEAVGTVSRVWGPSPKSNQPGSQSSFTAVTIEGMRVMLFTHPLNFKGRWLRDRLNLWLTDNQRIYNVGQVSIGDENSAYSSVLYKDDKLYCLHEINTDEVYSLVFARLVGELRIIKSVLRSWKNWDSHLSSICTPADPAASSSESGCGPAVTTVGLVGFLSGNASQNVWEDAYRCVNASTANAERVRNGLKFAGVGGGALWPVSQQGQNQRYRFANHAFTLVASVTIHEAPRAASPLLGASLDSSGGKKLLGLSYDEKHQWQPIYGSTPVTPTGSWETGKRYHLVLTMANKI
- expression of FKN in the heart and liver (MCP-1 and FKN [1]): sharp increase
- expression of MCP-1 in the heart and liver (MCP-1 and FKN [1]): sharp increase
- cardiac FKN transcripts (MCP-1 and FKN [2]; [5]): significantly increased
- cardiac MCP-1 transcripts (MCP-1 and FKN [2]; [5]): significantly increased
- expression of MCP-1 in the heart, liver and spleen (MCP-1 and FKN [2]; single IV dose, 3 hr post-injection, liver most robust): increased expression
- time of peak of cardiac FKN (MCP-1 and FKN [2]; single IV dose, post-injection): 3 h
- time of peak of cardiac MCP-1 (MCP-1 and FKN [2]; single IV dose, post-injection): 3 h
- increased expression of FKN in the heart (MCP-1 and FKN [2]; [6]): dose-dependent
- increased expression of MCP-1 in the heart (MCP-1 and FKN [2]; [6]): dose-dependent
- increased expression of MCP-1 in the liver (MCP-1 and FKN [2]; [6]): dose-dependent
- half-life in the blood [3]: ~15 min
- time of peak in the myocardium post-injection [3]: ~15 min
- inflammatory infiltrates in the heart ([4]; IV 1 mg/kg at 0, 3, 24 hours weekly for 3 weeks, 1 mg/kg): dramatic reduction and rare
- cardiac fibrosis [4]: reduced
- cardiac fibrosis ([4]; listed as PDNF fragment): nearly eliminated

From US9744220B2, “Compositions and methods for treating inflammatory diseases” (priority 2013, dated 2017)
